Experimental findings from publication PMC10244618 are described below.

B1: NF2 (merlin) isoform 7, human, full length (507 aa, lacks exons 2-3 = isoform-1 residues 39-121; exon-16 C-terminus), P35240-4 (parent)
chain: MAGAIASRMSFSSLKRKQPKTFTVRIVTMDAEMEFNCEVKKQILDEKIYCPPEASVLLASYAVQAKYGDYDPSVHKRGFLAQEELLPKRVINLYQMTPEMWEERITAWYAEHRGRARDEAEMEYLKIAQDLEMYGVNYFAIRNKKGTELLLGVDALGLHIYDPENRLTPKISFPWNEIRNISYSDKEFTIKPLDKKIDVFKFNSSKLRVNKLILQLCIGNHDLFMRRRKADSLEVQQMKAQAREEKARKQMERQRLAREKQMREEAERTRDELERRLLQMKEEATMANEALMRSEETADLLAEKAQITEEEAKLLAQKAAEAEQEMQRIKATAIRTEEEKRLMEQKVLEAEVLALKMAEESERRAKEADQLKQDLQEAREAERRAKQKLLEIATKPTYPPMNPIPAPLPPDIPSFNLIGDSLSFDFKDTDMKRLSMEIEKEKVEYMEKSKHLQEQLNELKTEIEALKLKERETALDILHNENSDRGGSSKHNTIKKPQAQGRRPICI

“And” between values parts separate entries of the source, which are not always exact repeats. Identical values can stand only once.

Variants of B1 are the subject of the first assay. As to the kind of experiment: reverse yeast two-hybrid deep mutational scan (rY2H-seq): NF2 isoform 7 mutant library as bait mated with wild-type prey strains; selection on medium lacking adenine for non-interacting pairs; NextSeq paired-end sequencing; enrichment vs …. Conditions: with KDM1A (lysine-specific histone demethylase 1A; the table's label AOF2 is a gene synonym of KDM1A), O60341; yeast diploids after mating (RBait_S3 x RPrey_S3), 30 °C, selection for reporter genes on NB agar; human tyrosine kinase ABL2 co-expressed as the active kinase …; HIGHER = WEAKER BINDING (the opposite of display enrichments): higher = stronger loss of interaction: reverse Y2H selects yeast in which bait and prey do NOT interact (growth without adenine), so a …; hits-only table; scale: rY2H score; numbering: uniprot, sequence starts at 1. A general note: In a reporter assay the amount or activity of a reporter protein is the signal.
D130A: the enrichment was found to be 1.54.
Consider E245Y, for which the enrichment is 1.47.
On the same count and under the same terms, with E309K the figure was 1.97; with V56L, 1.8.
On to T308I, for which the enrichment was found to be 2.84.
As for E148A, the enrichment is 1.62 and 1.74.
For A65V, the enrichment amounted to 1.9.
Consider Q345K, for which the enrichment was 1.61.
In the case of I160K, the enrichment is 3.84 and 4.07.
On to I127E, for which the enrichment amounted to 11.8.
With A59V, the enrichment amounted to 1.61.
Take Q64K: the enrichment is 2.38.
Still for that read-out and setting: the same measure for Q64P: 6.87; for A316E: 2.69.
As to P396S, the enrichment was 1.47.
Still for that read-out and setting: the same measure for I404D: 7.96; for D198G: 2.28; for I329A: 1.81.
Still for that read-out and setting: the same measure for E349P: 2.41; for R364A: 4.28 and 3.15.
I105C: the enrichment amounted to 1.42.
Regarding S489L, the enrichment was 2.43.
Same read-out and setting: the same measure for A54V: 3.45.
Turning to L355P, the enrichment is 1.79.
Same read-out and setting: the same measure for S55F: 3.58; for A140G: 1.91; for T394A: 1.4.
Consider R89K, for which the enrichment was 1.9.
Same read-out and setting: with A354L the figure was 3.78; with R341A, 8.79; with A385E, 2.59 and 2.4.
The same measure, in the same setting: the same measure for R243K: 1.55.
For the variant Q306H, the enrichment is 1.79.
The same measure, in the same setting: with N137R the figure was 2.21; with P407L, 1.77 and 2.01; with P407A, 2.33.
The same measure, in the same setting: the same measure for L390E: 2; for N143M: 2.18; for K126E: 22.9.
On the same count and under the same terms, the same measure for K330L: 2.59; for G419E: 4.86.

Staying with this assay, now noted: with PIK3R3 (phosphatidylinositol 3-kinase regulatory subunit gamma), Q92569; yeast diploids after mating (RBait_S3 x RPrey_S3), 30 °C, selection for reporter genes on NB agar; human tyrosine kinase ABL2 co-expressed as the active kinase …; HIGHER = WEAKER BINDING (the opposite of display enrichments): higher = stronger loss of interaction: reverse Y2H selects yeast in which bait and prey do NOT interact (growth without adenine), so a …; hits-only table; scale: rY2H score; numbering: uniprot, sequence starts at 1.
Take L149P: the enrichment worked out at 2.48.
Same read-out and setting: with P52A the figure was 1.76; with E309K, 3.02; with V56L, 1.92.
Take E339G: the enrichment stood at 2.91.
Same read-out and setting: with T297L the figure was 1.67; with A59V, 2.52.
On the same count and under the same terms, with A316E the figure was 2.22 and 3.1.
The same measure, in the same setting: with P396K the figure was 4.88.
As for M280I, the enrichment is 2.64.
As to S294F, the enrichment came out at 2.27.
On to S294V, for which the enrichment is 1.71.
On the same count and under the same terms, the same measure for I329A: 1.64.
As for R364A, the enrichment amounted to 2.87.
Consider L353P, for which the enrichment amounted to 1.53.
As for F415E, the enrichment was found to be 1.83.
Still for that read-out and setting: the same measure for S55K: 35.5; for E234K: 1.73.
Still for that read-out and setting: with A140V the figure was 2.13; with T394A, 2.14.
The same measure, in the same setting: the same measure for T394S: 1.98.
As for T147A, the enrichment turned out to be 5.43.
For R89G, the enrichment worked out at 1.41.
With V63K, the enrichment turned out to be 2.
Same read-out and setting: with A385E the figure was 4.1; with L207G, 1.42; with N176M, 1.43.
Same read-out and setting: with N137R the figure was 2.63.
Same read-out and setting: the same measure for K346N: 2.36; for G486S: 2.29.
In the case of V352K, the enrichment was 2.67.
Same read-out and setting: with L14P the figure was 3.46; with S73A, 4.51.
For A368L, the enrichment was determined as 2.18.
As for L216P, the enrichment was found to be 3.07.
On the same count and under the same terms, with A312K the figure was 2; with G146R, 1.52.
With E458L, the enrichment was 13.6.

The assay is the same for the next values; noted with them: with NF2 C-terminal domain (wild type; homomeric NF2-NF2 interaction), P35240; yeast diploids after mating (RBait_S3 x RPrey_S3), 30 °C, selection for reporter genes on NB agar; human ABL2 co-expressed as the kinase-dead K35M mutant …; HIGHER = WEAKER BINDING (the opposite of display enrichments): higher = stronger loss of interaction: reverse Y2H selects yeast in which bait and prey do NOT interact (growth without adenine), so a …; hits-only table; partner unresolved; scale: rY2H score; numbering: uniprot, sequence starts at 1.
On to E245A, for which the enrichment came out at 1.58.
Still for that read-out and setting: the same measure for E245K: 3.75; for E309K: 1.83.
As to T297L, the enrichment was found to be 3.13.
On to I160A, for which the enrichment is 1.61.
Still for that read-out and setting: the same measure for I160K: 1.71 and 3.21; for A499G: 1.7.
On the same count and under the same terms, with Q64M the figure was 5.81; with R113G, 1.5; with L408C, 1.37.
With I105C, the enrichment is 1.42 and 1.58.
On the same count and under the same terms, with S489K the figure was 2.15.
Same read-out and setting: with L158G the figure was 1.55; with L353K, 3.06; with F415E, 2.37.
Consider N288A, for which the enrichment was 1.84.
A140G: the enrichment is 1.75.
Same read-out and setting: the same measure for T394K: 1.65; for T394R: 3.98.
Still for that read-out and setting: the same measure for Q261E: 1.7; for Q236A: 2.27.
As for E380K, the enrichment turned out to be 3.26.
On to Q373K, for which the enrichment was 1.92.
Still for that read-out and setting: the same measure for L475K: 4.06; for S483K: 2.55; for L466C: 1.55.
Still for that read-out and setting: the same measure for A385E: 2.06.
As to H491L, the enrichment turned out to be 2.51.
As to S423L, the enrichment is 2.58.
For the variant N137Q, the enrichment stood at 1.42.
Same read-out and setting: with Y61K the figure was 1.84; with Y61A, 6.2.
Take L417T: the enrichment came out at 2.32.
Turning to Q376A, the enrichment is 5.78.
With Y70H, the enrichment was 1.43.
The same measure, in the same setting: the same measure for S73P: 2.96; for L390A: 2.28; for E310L: 1.51.
For the variant N143M, the enrichment was 1.65 and 1.37.
For the variant F139E, the enrichment was determined as 20.1.
The same measure, in the same setting: with K126L the figure was 1.8 and 2.78.
Still for that read-out and setting: with N482E the figure was 1.99; with N482A, 3.43.
As for L291E, the enrichment stood at 2.16.
On the same count and under the same terms, the same measure for E377L: 1.63; for A312K: 2.34; for D118K: 4.21.
Still for that read-out and setting: with M238A the figure was 4.02.

The assay is the same for the next values; noted with them: with KDM1A (lysine-specific histone demethylase 1A; the table's label AOF2 is a gene synonym of KDM1A), O60341; yeast diploids after mating (RBait_S3 x RPrey_S3), 30 °C, selection for reporter genes on NB agar; human ABL2 co-expressed as the kinase-dead K35M mutant …; HIGHER = WEAKER BINDING (the opposite of display enrichments): higher = stronger loss of interaction: reverse Y2H selects yeast in which bait and prey do NOT interact (growth without adenine), so a …; hits-only table; scale: rY2H score; numbering: uniprot, sequence starts at 1.
Regarding Q345K, the enrichment was determined as 2.79.
Consider A59S, for which the enrichment was 4.04.
L408K: the enrichment is 1.88.
Consider A354L, for which the enrichment was 3.5.
Same read-out and setting: the same measure for W175C: 2.59; for A385E: 2.26 and 2.39; for T168D: 2.37.
